According to US20190309079A1 (Regeneron, published 2019):
Like-named read-outs stand apart in the source and are kept apart here.

T1: LEPR-A409E (signaling-defective mutant) on HEK293 reporter cells (human, UniProt P48357 22-1165)
T1 sequence: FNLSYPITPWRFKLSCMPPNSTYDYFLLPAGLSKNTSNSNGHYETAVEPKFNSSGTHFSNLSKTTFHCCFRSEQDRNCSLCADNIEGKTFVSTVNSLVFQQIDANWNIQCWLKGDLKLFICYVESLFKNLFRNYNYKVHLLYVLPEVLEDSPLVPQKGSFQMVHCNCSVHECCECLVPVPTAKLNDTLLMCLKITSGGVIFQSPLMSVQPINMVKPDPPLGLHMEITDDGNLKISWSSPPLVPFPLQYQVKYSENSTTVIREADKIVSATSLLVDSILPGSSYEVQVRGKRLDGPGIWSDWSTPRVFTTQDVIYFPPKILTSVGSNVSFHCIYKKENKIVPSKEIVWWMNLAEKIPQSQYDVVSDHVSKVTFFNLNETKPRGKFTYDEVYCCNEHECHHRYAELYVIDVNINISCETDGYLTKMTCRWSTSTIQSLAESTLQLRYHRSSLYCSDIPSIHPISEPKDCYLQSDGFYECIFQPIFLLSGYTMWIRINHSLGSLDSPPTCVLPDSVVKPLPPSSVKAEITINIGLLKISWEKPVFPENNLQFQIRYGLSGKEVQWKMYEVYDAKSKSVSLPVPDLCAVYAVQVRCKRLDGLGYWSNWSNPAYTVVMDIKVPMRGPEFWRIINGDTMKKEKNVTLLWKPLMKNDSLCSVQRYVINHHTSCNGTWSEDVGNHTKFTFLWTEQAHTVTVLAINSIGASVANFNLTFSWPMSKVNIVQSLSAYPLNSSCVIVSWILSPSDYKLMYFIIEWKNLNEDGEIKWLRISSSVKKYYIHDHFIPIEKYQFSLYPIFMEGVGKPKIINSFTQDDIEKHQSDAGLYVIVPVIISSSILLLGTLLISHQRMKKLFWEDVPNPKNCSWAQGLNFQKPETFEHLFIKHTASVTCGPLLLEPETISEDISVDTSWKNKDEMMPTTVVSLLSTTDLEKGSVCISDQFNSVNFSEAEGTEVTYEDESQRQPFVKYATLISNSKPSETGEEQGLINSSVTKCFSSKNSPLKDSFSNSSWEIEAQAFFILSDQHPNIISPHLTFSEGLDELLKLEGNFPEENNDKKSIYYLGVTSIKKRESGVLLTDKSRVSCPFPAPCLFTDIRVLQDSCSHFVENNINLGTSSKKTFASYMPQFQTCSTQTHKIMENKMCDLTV

T2: wild-type LEPR on HEK293 reporter cells (UniProt P48357 22-1165, limits assumed)
T2 sequence (looked up): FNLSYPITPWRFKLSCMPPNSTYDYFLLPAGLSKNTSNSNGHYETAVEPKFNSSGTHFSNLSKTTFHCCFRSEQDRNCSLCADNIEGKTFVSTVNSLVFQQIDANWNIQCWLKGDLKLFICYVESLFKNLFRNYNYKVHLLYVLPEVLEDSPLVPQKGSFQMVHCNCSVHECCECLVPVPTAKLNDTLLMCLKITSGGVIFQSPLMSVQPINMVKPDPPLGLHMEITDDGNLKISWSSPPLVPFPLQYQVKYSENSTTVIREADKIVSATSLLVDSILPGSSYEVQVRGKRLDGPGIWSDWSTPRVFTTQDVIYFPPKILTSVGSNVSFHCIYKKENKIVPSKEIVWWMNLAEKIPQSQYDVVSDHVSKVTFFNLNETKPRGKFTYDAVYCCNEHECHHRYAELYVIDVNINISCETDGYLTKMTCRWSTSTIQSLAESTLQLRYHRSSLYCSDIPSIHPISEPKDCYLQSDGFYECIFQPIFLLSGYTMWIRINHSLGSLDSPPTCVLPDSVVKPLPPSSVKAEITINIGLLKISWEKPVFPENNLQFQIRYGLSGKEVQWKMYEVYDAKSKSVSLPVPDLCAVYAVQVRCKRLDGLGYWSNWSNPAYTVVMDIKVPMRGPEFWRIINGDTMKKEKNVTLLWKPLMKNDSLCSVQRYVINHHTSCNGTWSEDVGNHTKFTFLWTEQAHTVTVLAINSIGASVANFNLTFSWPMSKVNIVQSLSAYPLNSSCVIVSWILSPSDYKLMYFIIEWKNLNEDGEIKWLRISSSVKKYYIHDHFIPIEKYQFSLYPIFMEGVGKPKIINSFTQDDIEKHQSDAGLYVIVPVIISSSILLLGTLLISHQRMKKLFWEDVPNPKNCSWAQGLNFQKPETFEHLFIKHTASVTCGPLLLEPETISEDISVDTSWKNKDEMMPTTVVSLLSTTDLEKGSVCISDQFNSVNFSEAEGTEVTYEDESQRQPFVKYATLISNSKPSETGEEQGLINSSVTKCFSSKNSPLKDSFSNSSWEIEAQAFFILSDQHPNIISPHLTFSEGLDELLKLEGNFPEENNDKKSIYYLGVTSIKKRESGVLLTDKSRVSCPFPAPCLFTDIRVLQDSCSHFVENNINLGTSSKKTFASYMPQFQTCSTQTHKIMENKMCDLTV


Key:
Experiment in all cases: cell-based or functional assay
[1] = target: T1, LEPR-A409E (signaling-defective mutant) …
[2] = target: T2, wild-type LEPR on HEK293 reporter cells
[3] = target: T1, LEPR-A409E (signaling-defective mutant) …; remark: listed apart in the source
[4] = target: T2, wild-type LEPR on HEK293 reporter cells; remark: listed apart in the source

| Binder | EC50 (read off the curve), pSTAT3 Y705/STAT3 densitometry [1] [M] | EC50 (read off the curve), pSTAT3 Y705/STAT3 densitometry [2] [M] | EC50 (read off the curve), pSTAT3 Y705/STAT3 densitometry [3] [M] | EC50 (read off the curve), pSTAT3 Y705/STAT3 densitometry [4] [M] |
| --- | --- | --- | --- | --- |
| H4H16679P2 (antibody, V domains shown) VH: QVQLVESGGGVVQPGRSLRLSCTASGFTFSSYAMYWVRQAPGKGLEWVSVIYYDGSYKYYADSVKGRFTISRDNSKNTLYLQMDSLRAEDTAVYYCASYNWNYWYFDFWGRGTLVTVSS VL: not shown | ~6e-10 | ~3e-10 | – | – |
| H4H16650P2 (antibody, V domains shown) VH: QVQLVESGGGVVQPGKSLRLSCVASGFTFSSDAMYWVRQAPGKGLEWVAVIYYDGNYQYYEDSVKGRFTISRDNSQNTLDLQMNSLRVDDTAVYFCARLNWDYWYLDLWGRGTLVTVSS VL: not shown | – | – | ~2e-10 | ~5e-10 |
